In article PMC3269963 (Journal of Immunology (Baltimore, Md. : 1950), 2011) one finds Kd data, which are given here for one molecule.

The target in the experiment is recombinant His-tag PCNA (proliferating cell nuclear antigen) (human, UniProt P12004 1-261). As to the kind of experiment: SPR. On the technique in general: SPR reads the build-up and loss of mass on a sensor chip optically.
Sequence of recombinant His-tag PCNA (proliferating cell nuclear antigen) (P12004 whole entry): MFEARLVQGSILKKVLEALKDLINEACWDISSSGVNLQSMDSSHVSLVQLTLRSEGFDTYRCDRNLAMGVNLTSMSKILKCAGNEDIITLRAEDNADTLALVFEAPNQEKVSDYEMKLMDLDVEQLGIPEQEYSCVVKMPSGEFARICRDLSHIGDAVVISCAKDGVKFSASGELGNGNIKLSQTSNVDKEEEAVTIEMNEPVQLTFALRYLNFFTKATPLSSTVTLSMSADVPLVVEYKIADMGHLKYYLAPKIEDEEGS

B1: NKp44-Ig (Fc fusion, UniProt O95944 22-192, looked up)
chain: QSKAQVLQSVAGQTLTVRCQYPPTGSLYEKKGWCKEASALVCIRLVTSSKPRTMAWTSRFTIWDDPDAGFFTVTMTDLREEDSGHYWCRIYRPSDNSVSKSVRFYLVVSPASASTQTSWTPRDLVSSQTQTQSCVPPTAGARQAPESPSTIPVPSQPQNSTLRPGPAAPIA
B1: the Kd (commonly the equilibrium constant for the complex coming apart) amounted to 3.4 nM.
